According to article PMC7450098, “The maturase HydF enables [FeFe] hydrogenase assembly via transient, cofactor-dependent interactions” (The Journal of Biological Chemistry, 2020):
Several values for one entry are separate records, joined by “and”; a condition that tells them apart may be missing. Equal values may be shown once.

Columns and labels:
[1] = target: HydF from Thermotoga maritima (Thermotoga maritima); assay: SEC + other: GEMMA (gas-phase electrophoretic macromolecule analysis); fractions P2 of apo-HydF (70 ml) and apo-HydA1 (75 ml) from Superdex-200 (50 mM Tris-HCl pH 8.0, 150 mM NaCl), then wide-scan GEMMA at 0.02 µg/µl protein in 20 mM ammonium acetate, 0.005% Tween 20; 1 mM DTT added to samples
[2] = target: HydA1 [FeFe] hydrogenase from Chlamydomonas reinhardtii (Chlamydomonas reinhardtii); assay: GEMMA (gas-phase electrophoretic macromolecule analysis); mixtures of metal-loaded HydF ([4Fe-4S]-HydF or holo-HydF) with HydA1 (apo, [4Fe4S] or holo); 0.02 µg/µl each protein in 20 mM ammonium acetate, 0.005% Tween-20
[3] = target: HydF from Thermotoga maritima (Thermotoga maritima); assay: as above
[4] = target: HydF from Thermotoga maritima (Thermotoga maritima); assay: GEMMA (gas-phase electrophoretic macromolecule analysis); mixtures of metal-free apo-HydF with HydA1 (apo, [4Fe4S] or holo); 0.02 µg/µl each protein in 20 mM ammonium acetate, 0.005% Tween-20
[5] = target: HydF from Thermotoga maritima (Thermotoga maritima); assay: GEMMA (gas-phase electrophoretic macromolecule analysis); isolated HydF or HydA1, each as apo, [4Fe4S] and holo form; 0.02 µg/µl protein in 20 mM ammonium acetate, 0.005% Tween-20
[6] = target: HydF from Thermotoga maritima (Thermotoga maritima); assay: SEC + other: GEMMA (gas-phase electrophoretic macromolecule analysis); fraction P1 (63 ml) of apo-HydF from Superdex-200 (50 mM Tris-HCl pH 8.0, 150 mM NaCl), then wide-scan GEMMA at 0.02 µg/µl protein in 20 mM ammonium acetate, 0.005% Tween 20; 1 mM DTT added to samples
HydF (TmHydF) = target: T1, HydF (TmHydF) (Thermotoga maritima, UniProt Q9WYS6); assay: in vitro reconstitution; spectroscopy; GEMMA; assay type: binding; conditions: anaerobic reconstitution of apo-protein
T1 construct: gene TM_0445; full length, expressed in E. coli Rosetta (II), heat step and phenyl-Sepharose; about 45 kDa; mainly dimer, some tetramer; apo-form reconstituted with [4Fe-4S]
T1 sequence (Q9WYS6 1-404): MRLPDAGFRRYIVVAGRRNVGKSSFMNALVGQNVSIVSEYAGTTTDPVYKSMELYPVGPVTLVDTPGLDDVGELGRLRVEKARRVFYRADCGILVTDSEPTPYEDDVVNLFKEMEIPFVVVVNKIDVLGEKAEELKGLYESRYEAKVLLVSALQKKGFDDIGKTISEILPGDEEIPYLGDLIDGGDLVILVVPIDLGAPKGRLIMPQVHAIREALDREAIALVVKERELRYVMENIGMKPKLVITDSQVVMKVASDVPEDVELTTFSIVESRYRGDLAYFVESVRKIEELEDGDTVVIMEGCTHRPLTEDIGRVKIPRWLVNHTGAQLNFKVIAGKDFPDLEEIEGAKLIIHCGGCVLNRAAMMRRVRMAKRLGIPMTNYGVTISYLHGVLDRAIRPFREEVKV

HydA1 (CrHydA1) = target: T2, HydA1 (CrHydA1) (Chlamydomonas reinhardtii, UniProt Q9FYU1); assay: in vitro reconstitution; spectroscopy; GEMMA; assay type: binding; conditions: anaerobic reconstitution of apo-protein
T2 construct: gene hyd1; His-tagged, purified recombinant; theoretical mass 49 kDa; monomer; apo-form reconstituted to [4Fe-4S]-HydA1
T2 sequence (Q9FYU1 56-497): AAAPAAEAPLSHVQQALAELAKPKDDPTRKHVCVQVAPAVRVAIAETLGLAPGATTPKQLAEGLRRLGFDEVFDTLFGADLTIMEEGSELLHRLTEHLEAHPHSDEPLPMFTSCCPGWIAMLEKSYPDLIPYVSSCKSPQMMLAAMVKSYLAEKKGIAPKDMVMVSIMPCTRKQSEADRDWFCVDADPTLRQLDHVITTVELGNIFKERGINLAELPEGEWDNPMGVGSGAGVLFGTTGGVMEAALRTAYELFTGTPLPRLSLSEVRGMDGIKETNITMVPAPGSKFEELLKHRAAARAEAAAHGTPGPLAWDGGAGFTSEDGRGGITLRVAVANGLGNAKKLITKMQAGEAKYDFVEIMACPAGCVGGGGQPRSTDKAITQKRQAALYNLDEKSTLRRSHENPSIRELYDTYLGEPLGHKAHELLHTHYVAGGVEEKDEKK

HydF from Thermotoga maritima (natural protein)
stoichiometry N [1]: 2 | stoichiometry N (HydF per HydA1) [2]: 2 | stoichiometry N [3]: 2 and 4 | stoichiometry N [4]: 2 and 4 | stoichiometry N [5]: 2 and 4 and > 6 | stoichiometry N [6]: 4 and 2 and 6

[S]12[Fe]3[S]4[Fe]1[S]1[Fe]2[S]3[Fe]41 [[4Fe-4S] cluster]
in vitro reconstitution; spectroscopy; GEMMA (HydF (TmHydF)): The [4Fe4S] clusters in apo-HydA1, apo-HydF, and the truncated HydF apo-proteins were reconstituted | in vitro reconstitution; spectroscopy; GEMMA (HydA1 (CrHydA1)): The [4Fe4S] clusters in apo-HydA1, apo-HydF, and the truncated HydF apo-proteins were reconstituted
